This is an account of results in US20190060430A1 (published 2019).

Holding throughout (experiment): cytokine release
The target in experiment [1] is T1, TPTE peptide on HLA-B*07:02 (human).
T1 peptide: PRWTHLLRL

Experiment [2] deals with T2, TPTE peptide on HLA-DRB1*13:01 (human).
T2 peptide: PPRRILFIKHFIIYS

Experiment [3] has as its target T3, TPTE peptide on HLA-DRB1*07:01 (human).
T3 peptide: YIPLEYRSISLAIAL

For experiment [4], the target named is T4, TPTE peptide on HLA-DRB1*07:01 (human).
T4 peptide: VFVERRQQYFSDLFN

B1: TCRCD8-TPT#35/2 (TCR, V domains shown)
Valpha: AQKVTQAQTEISVVEKEDVTLDCVYETRDTTYYLFWYKQPPSGELVFLIRRNSFDEQNEISGRYSWNFQKSTSSFNFTITASQVVDSAVYFCALIEAAAGNKLTFGGGTRVLVKP
Vbeta: NAGVTQTPKFRVLKTGQSMTLLCAQDMNHEYMYWYRQDPGMGLRLIHYSVGEGTTAKGEVPDGYNVSRLKKQNFLLGLESAAPSQTSVYFCASSDGYGYTFGSGTRLTVV
As to B1, in experiment [1], the binding result is listed as “recognises”.

B2: TCRCD4-TPT#82 (TCR, V domains shown)
Valpha: AQTVTQSQPEMSVQEAETVTLSCTYDTSESDYYLFWYKQPPSRQMILVIRQEAYKQQNATENRFSVNFQKAAKSFSLKISDSQLGDAAMYFCAYRSAGLLLTFGGGTRLMVKP
Vbeta: DGGITQSPKYLFRKEGQNVTLSCEQNLNHDAMYWYRQDPGQGLRLIYYSQIVNDFQKGDIAEGYSVSREKKESFPLTVTSAQKNPTAFYLCASSKAPGQGNTQGWEQYFGPGTRLTVT
Take B2: the binding result in experiment [2] is listed as “recognises”.

B3: TCRCD4-TPT#9 (TCR, V domains shown)
Valpha: QQQVKQSPQSLIVQKGGISIINCAYENTAFDYFPWYQQFPGKGPALLIAIRPDVSEKKEGRFTISFNKSAKQFSLHIMDSQPGDSATYFCAASFYTGNQFYFGTGTSLTVIP
Vbeta: DTAVSQTPKYLVTQMGNDKSIKCEQNLGHDTMYWYKQDSKKFLKIMFSYNNKELIINETVPNRFSPKSPDKAHLNLHINSLELGDSAVYFCASSQEALGGGYGYTFGSGTRLTVV
As to B3, the binding result in experiment [3] and in experiment [4] was “recognises” each time.
